Reference: patent US10059928B2, “Polymerases” (Illumina Cambridge Limited, priority 2005, dated 2018)
Numbering of substitutions follows the chain as printed. Names and notes keep the numbering of the source.

B1: wild-type 9°N-7 polymerase: Wild-type family B DNA polymerase from Thermococcus sp. 9°N-7 (protein, UniProt Q56366 1-775, looked up)
DNA polymerase: MILDTDYITENGKPVIRVFKKENGEFKIEYDRTFEPYFYALLKDDSAIEDVKKVTAKRHGTVVKVKRAEKVQKKFLGRPIEVWKLYFNHPQDVPAIRDRIRAHPAVVDIYEYDIPFAKRYLIDKGLIPMEGDEELTMLAFDIETLYHEGEEFGTGPILMISYADGSEARVITWKKIDLPYVDVVSTEKEMIKRFLRVVREKDPDVLITYNGDNFDFAYLKKRCEELGIKFTLGRDGSEPKIQRMGDRFAVEVKGRIHFDLYPVIRRTINLPTYTLEAVYEAVFGKPKEKVYAEEIAQAWESGEGLERVARYSMEDAKVTYELGREFFPMEAQLSRLIGQSLWDVSRSSTGNLVEWFLLRKAYKRNELAPNKPDERELARRRGGYAGGYVKEPERGLWDNIVYLDFRSLYPSIIITHNVSPDTLNREGCKEYDVAPEVGHKFCKDFPGFIPSLLGDLLEERQKIKRKMKATVDPLEKKLLDYRQRAIKILANSFYGYYGYAKARWYCKECAESVTAWGREYIEMVIRELEEKFGFKVLYADTDGLHATIPGADAETVKKKAKEFLKYINPKLPGLLELEYEGFYVRGFFVTKKKYAVIDEEGKITTRGLEIVRRDWSEIAKETQARVLEAILKHGDVEEAVRIVKEVTEKLSKYEVPPEKLVIHEQITRDLRDYKATGPHVAVAKRLAARGVKIRPGTVISYIVLKGSGRIGDRAIPADEFDPTKHRYDAEYYIENQVLPAVERILKAFGYRKEDLRYQKTKQVGLGAWLKVKGKK
B2: R743A: 9°N-7 YAV C223S exo- polymerase with alanine substitution at Arg743 in the thumb subdomain (protein)
chain: B1 DNA polymerase with D141S, E143S, C223S, L408Y, Y409A, P410V, A485L, R743A
modifications: Codon optimised thumb mutant polymerase
notes: 9°N-7 YAV C223S exo- polymerase with alanine substitution at Arg743 in the thumb subdomain

Tests used:
DNA = details: wild-type enzyme; Southworth et al. 1996; read-out: Kd (affinity for DNA); cited from earlier work
10A hairpin DNA [1] = test: Single base incorporation assay for purified polymerases where [DNA] is greater than [pol]; type: biochemical; details: 4 nM purified enzyme, 2 μM ffT-N3-cy3
Method: The activity of the purified enzyme preparations of Clone 9 polymerase (YAV C223S exo-) and the thumb sub-domain mutants K705A, R713A and R743A was measured using the single base incorporation assay as described in WO 2005/024010. The experiment was carried out such that the respective concentrations of DNA and polymerase were at a ratio of approximately 5:1. Thus, the ability of the enzyme to incorporate nucleotides into multiple DNA template molecules in a single reaction cycle was investigated. 30 minute incubations were run with 4 nM purified enzyme in the presence of 20 nM 10A hairpin DNA (^32P-labelled) and 2 μM ffT-N3-cy3, aliquots of the reaction mixture were withdrawn at 0, 15, 30, 60, 180, 480, 900 and 1800 s intervals and run on a 12% acrylamide gel.
The band intensities were quantified using Imagequant and the fluorescence intensity, converted into percentage completion (based on the relative intensities of the starting material and final product bands on the gel) plotted versus incubation time to generate the timecourses shown in FIG. 5.

10A hairpin DNA [2] = test: Single base incorporation assay, crude enzyme preparations (normalised concentrations); type: biochemical; details: first base incorporation of ffTTP
Method: The activity of the crude enzyme preparations (normalised concentrations) was measured using the single base incorporation assay as described in WO 2005/024010. 10 minute incubations were run with either 30 or 3 μg/ml crude enzyme preparation in the presence of 2 μM ffT-N3-cy3 and 20 nM 10A hairpin DNA (^32P-labelled), aliquots of the reaction mixture were withdrawn at 0, 30, 60, 180 and 600 s and run on a 12% acrylamide gel.
The band intensities were quantified using Imagequant and the fluorescence intensity plotted versus incubation time to generate the time-courses shown in FIG. 4.

[3] = tested on: surface-coupled A-template hairpin (oligo 815); test: NUNC tube assay using crude protein preparation: incorporation of ffTTP into surface-coupled hairpin; type: biochemical; details: crude enzyme, 5 μM ffT-N3-647, 45° C., 30 minutes; samples not normalised for concentration
Method: Small 5 ml cultures of the mutant enzymes (along with a culture of YAV C223S exo- for direct comparison) were taken through a quick purification as outlined in WO 2005/024010 up until the heat treatment step. At this point, the samples were considered to be sufficiently pure to test their activity.
The buffers for each of the crude preparations were exchanged into enzymology buffer (50 mM Tris pH 8.0, 6 mM MgSO4, 1 mM EDPA, 0.05% Tween20) using an S300 gel filtration spin-column. The samples were not normalised for concentration. The test employed was a simple incorporation of ffTTP into surface-coupled A-template hairpin. 2 pmoles of 5′-amino oligo 815 (5′-[…] […]-3′) (SEQ ID NO: 17) was coupled to a NUNC-nucleolink strip according to the manufacturers protocol.
Once washed, each well was incubated with a 20 µl aliquot of a crude enzyme preparation (identity of enzyme listed below) and 5 µM ffT-N3-647. The strip was then incubated at 45° C. for 30 minutes. The experiment was performed in duplicate. Upon completion of the 30 minute incubation, wells were washed with 3×100 µl of high salt wash buffer (10 mM Tris pH 8.0, 1M NaCl, 10 mM EDTA) and then 3×100 µl of MilliQ water. Strips were scanned on a typhoon fluorescence imager CY5 filter, PMT=450 V).
The fluorescence density is proportional to the amount of ffTTP incorporation—the darker the well, the greater the level of incorporation. […]

[4] = tested on: ffT-N3-cy3 incorporation into A template hairpin oligo 815; test: Incorporation kinetics of ffT-N3-cy3 (NUNC tube assay, Michaelis plots); type: biochemical; details: 45° C., [DNA]<<[pol] or [ffNTP]
Method: The kinetic characterization of the enzymes was conducted using NUNC tube assay and involved the measurement of rate constants for the first order incorporation of ffT N3 cy3 where [DNA]<<[pol] or [ffNTP], at a variety of [ffTTP]. Below is described the methodology used for each of the three polymerases tested.
Six (1×8) NUNC nucleolink strips were functionalized with 2 pmoles of 5′-amino A template hairpin oligo 815 (5′ H2N-[…] ATGCACATCAGCG-3′) (SEQ ID NO: 18), according to the manufacturer's protocol.
Each strip was employed for a time-course experiment at a particular (ffT-N3-cy3). […]
Time-courses were initiated by addition of a 20 μl aliquot of 2× enzymology mix (X μM ffT-N3-cy3, 1.1 μM polymerase in enzymology buffer) pre-equilibrated at 45° C. for 2 minutes using an 8-channel multipipette in order to start reactions in individual wells at identical time-points. […] After reactions in all 8 wells stopped, strips were washed with […] high salt wash (10 mM Tris pH 8.0, 1 M NaCl, 10 mM EDTA) and then […] MilliQ water and then scanned on a Typhoon fluorescence imager (Cy3 filter, PMT=500 V). Fluorescence intensities in each well were quantified using Imagequant. Plotting the variation in Cy3 fluorescence intensity vs. time generates time-course graphs. […]

Molecule | Kd (DNA) [nM] | amplitude of the burst (exponential) phase, percentage completion (10A hairpin DNA [1]; 20 nM 10A hairpin DNA (ratio 5:1)) [%] | observed rate constant kobs for the burst phase (10A hairpin DNA [1]; crude fitting of timecourses, 20 nM 10A hairpin DNA) [s⁻¹] | activity relative to YAV (in words) (10A hairpin DNA [2]) | improvement in level of incorporation over clone 9 [3] [%] | kpol [4] [s⁻¹]
B1 | 0.05 | – | – | – | – | –
B2 | – | ~90 | ~0.004 | comparable activities to YAV | ~45 | 0.068
